Experimental data as given in the DeepSol protein solubility set.

Test: soluble on expression in E. coli; label from the status in PepcDB or PDB records

Sequence	soluble on expression in E. coli
MGSDKIHHHHHHAEVDQATKPAEAKYYIAGTITDATTGQELTTAKVTLGDKSVTSSFNEQVNYKAEGYALVVSADGYYPVKRQVYLNQVSDGQTSVATVNVALVSVEAAVIPPVVPPTDPETDINEGEATKVADKAVEVAKPSESTVTDMLAGTTATPEEKKALDETLEMAGGMKVGETTPEVLADGSILAITPVKFTNPIQDAPAMVPYFYNEGCELTGDVKEVAAPVTRADGAVAADIQKAFLSNAAKALNMNAGFVQKIGYTRISVLNGYSILGYTIKGQLVSKKLTFLISGKYYEGIVSYQKSVMIYPNYYSHDSHDSHDSHGFNPNAGGGSND	not soluble
MAENRNRKPSDSQVDAIKVPPHSLEAEQSVIGGLLLDNERWDTVAERVVASDFYSRPHRLIFEGVKTILESGKPLDLITLSEHLERHEQLEDVGGFAYLADLAKNTPSAANINAYADIVAERAIVRGLIGVANEIADAGYDPQGRSSEDLIDMAESKVFAIAESRTSENEGPQNVDNILEKTLERIELLYKTPQDGVTGVDTGFTDLNKKTAGLQGSDLVIVAARPSMGKTTFAMNLCENAAMQQDKPVLIFSLEMPAEQLMMRMLASLSRVDQTKIRTGQLDDEDWARISSTMGILMQKKNMYIDDSSGLTPTEVRSRARRVAREHGGLSMIMVDYLQLMRVPSLTDNRTLEIAEISRSLKALAKELNVPVVALSQLNRSLEQRADKRPVNSDLRESGSIEQDADLIMFIYRDEVYHPDSPYKGTAEIIIGKQRNGPIGSVRLTFQGQHSRFDNYAGPAFDIDDE	not soluble
VLTELVDLPGGSFRMGSTRFYPEEAPIHTVTVRAFAVERHPVTNAQFAEFVSATGYVTVAEQPLDPGLYPGVDAADLCPGAMVFCPTAGPVDLRDWRQWWDWVPGACWRHPFGRDSDIADRAGHPVVQVAYPDAVAYARWAGRRLPTEAEWEYAARGGTTATYAWGDQEKPGGMLMANTWQGRFPYRNDGALGWVGTSPVGRFPANGFGLLDMIGNVWEWTTTEFYPHHRIDPPSTACCAPVKLATAADPTISQTLKGGSHLCAPEYCHRYRPAARSPQSQDTATTHIGFRCVADPVSG	soluble
MQEVKQWPVKIMLVHPKAPFLKGEKIVIAADCAVLVNRDIRDRFESDAVIIGCPMLEDPRRMFERIKMIVAESDAKLEVYTMEVPCCHALHLMVEKAKEEHGKQTESEKYIVRVSGAVEPYSKKIDESMIEAERRAHRGH	not soluble
MGSDKIHHHHHHVDLGHDVTLFASGDSITSAKLDACWPRALRLDPTIRDALAPHMLMMEKVRKVAHEFDVLHFHLDYMPFPLFTTMDTPFVTTLHGRLDLPELQPVFDACSNVPVVSISDSQRQPLPQANWLNTIYHGLPEQLLTPQAHKKPEYLAFLGRICPEKRVDTAIRIAAQSGLPLKIAAKVDKVDQEYFKREIEPLLSMAHVEFVGEINEAQKPEFLSSAKALLFPIDWSESFGLVMIESMACGTPVIAFNRGSVPEVIDHGVTGYIVEDVQGAVAALQRLDELSRTEMRGRRLNLPLEKMRDWRIGSRVCRHHAG	not soluble
MNLNKNLPTGTRDKLFREARASYQIEQQVNHYFAKRGFKRIETPVIEFEDVFSSEHQADAKLYRFFDEKGRLTVLRPDMTLPIGRVVSTTGVTLPLKLSYSGKIFRANEDFGGEQNEQTQAGIEIIGYPSIKAEIECILSGIGVLNALEIPNFQIELGHAAIYRRVIHLLNLPETAEMDFRLLIQNKSLTGIQQFVTENPSTLDDFILALPRLFGPATTILKQAKNLTTDKGILTALTEMETIVDAVSYAADISVDLGLVQDFHYYTGIIFRGYADLAADNFLSGGRYDHLLEQFTSSSSPAVGLALNLDSLTT	not soluble
MAAWFECKVTYEKVADNGMPKKVVESYLVDADSFTLAEAKMIEEITPFVSMGEFNISNIRKVNYAELFLNEDDKCDRYYRCKVLYVTIDEKNGVEKKTPAFMLVKSDSLPNAVAELEKQMGKGLADYEIASVAETALMDVFQYVPAQ	not soluble
SNAMSDTLYIKMDQAVEITKKQVTVGDVAKLQCKNKNITNRLKSMKLLEDTTKGKKRYIVSIMKIIEMADQTFQNVDIQNIGETECVVEFKTPKKDDGPM	soluble
MGSDKIHHHHHHMKIILGIPDLKIPVWTFKQPLMINQLNWDRPSWENETWVDSGGYQIMVRGIKVEIEKVVEKYKILDATQYMSLDIPSIPCHKPSELNYKYFEYLYTVFDKKIVPVIHAYDPESIKKSIDFYSQYTDLVAFGGIVPPTLNKSGNKKLAVAIYYLVRKLWKGKIHVLGAGSPFMRKVYFNADSVDTSTYRVKGIHGMVIIPGKGERYVGNRKIVWGTKRASEEELEILLSFLDKTHYPFQIRFDNWIDRSLINAWVLLNSEYESNNPLIRYSKKLDTFAEDEIEEEVNELCM	not soluble
MSLVVFPFKHEHPEVLLHNVRVAAAHPRVHEVLCIGYERDQTYEAVERAAPEISRATGTPVSVRLQERLGTLRPGKGDGMNTALRYFLEETQWERIHFYDADITSFGPDWITKAEEAADFGYGLVRHYFPRASTDAMITWMITRTGFALLWPHTELSWIEQPLGGELLMRREVAAMLYEDERVRRRSDWGIDTLYTFVTVQQGVSIYECYIPEGKAHRLYGGLDDLRTMLVECFAAIQSLQHEVVGQPAIHRQEHPHRVPVHIAERVGYDVEATLHRLMQHWTPRQVELLELFTTPVREGLRTCQRRPAFNFMDEMAWAATYHVLLEHFQPGDPDWEELLFKLWTTRVLNYTMTVALRGYDYAQQYLYRMLGRYRYQAALENGRGHPVPPRAALSTA	soluble
MSLKIKFKRLDYQEQCRDQILGVFKGIDLKEPENDAQRISNPVFEIGAIKDLLLENIENLRSKQKITQGSVGIDKSLNCDILMETGTGKTFCFLECVYALHKNHHLSKFIVLTPSNAIKLGVLKSVEITREFFKSEYSNTHLESYEDIERFILASNHKCCVLVMTFSAFNKEKNTINKSCLENTNLFNGATSYMQALVSMRPIVIMDEPHRFLGDKTKKYLEQLNALLTLRFGATFKDDYNNLIYTLDSKKAFDCALVKSISVASVGESNECFLELKGIEKKEAAINYTDLENKTQSVKVKEHDNLGVVTQISALEDYIVEKITKTEIRFLNGFNLLLDQKEPFSHLLEGEQEVMLKEAIKSHFEREEGLFKKGIKALCMVFISGVNSYLSENEKPAKLALLFEKLYQQKLEEVLKKPLDENYRAYLECTREDIKKVHGGYFAKSKKEGDETKTIELILKEKEKLLSFDSDLRFIFSQWALQEGWDNPNVMTICKLAPSHSNITKLQQIGRGLRLAVNDKGERITKEHADFDFVNELVVIVPQVEGDFVGAIQQEISEHSLIKQEFSAEELEKSGVVKKGRYGFLLETLEGLGFGEKTGDENFKLTLNQNEFLEKEPELEKLKDEKYLDFEKLKDFLKDRLIGNSRVRDKNERKSEKIKINKENFKKFETLWESLNHQARIAYAIDSESLIDEIVKNINSSFNVSSKIVSVTTHKKVETMGNNAKTEIFERENACVWSLHEFISALSNKVKLSFKSVAKVLENIDENKFNEIKKNEQEGLRRLEELFLEIIYQNIKDKISYQMRETTIKNRKNDAFYDEKGEIREFLDGSLGADKYEIKNSSVREKCLYENFMQVDSEIEKDTIEESNDTKIIVFGKLPRVKIPIGLNQTYSPDFGYVVENNDKKVLLVVETKGVDKKSELRPEEERKISTAKKFFEALKKQGVNIEYKTKMEKDQLSALINEVLNRKDEGHHHHHH	not soluble
MLAIFHEAFAHPPEELNSPASEKCSKQPKLPEETLNDFLLRYPLNTFSMSFGQAAVLAYVRPSASFSIHQRLFCGFDDIYCLFFGSLNNLCQLNKQYGLTKTTNEAMFVIEAYRTLRDRGPYPADQVVKDLDGSFSFVVYDSKAGSVFTALVLIHKISPRLLELNFNGSDGGVKLYWGIAADGSVVISDDLDVIKEGCAKSFAPFPTGCMFHSEGGLMSFEHPMNKIKAMPRVDSEGVLCGANFKVDVYNRVNSIPRRGSEANWSL	soluble
MTQTYNADAIEVLTGLEPVRRRPGMYTDTTRPNHLGQEVIDNSVDEALAGHAKRVDVILHADQSLEVIDDGRGMPVDIHPEEGVPAVELILCRLHAGGKFSNKNYQFSGGLHGVGISVVNALSKRVEVNVRRDGQVYNIAFENGEKVQDLQVVGTCGKRNTGTSVHFWPDETFFDSPRFSVSRLTHVLKAKAVLCPGVEITFKDEINNTEQRWCYQDGLNDYLAEAVNGLPTLPEKPFIGNFAGDTEAVDWALLWLPEGGELLTESYVNLIPTMQGGTHVNGLRQGLLDAMREFCEYRNILPRGVKLSAEDIWDRCAYVLSVKMQDPQFAGQTKERLSSRQCAAFVSGVVKDAFILWLNQNVQAAELLAEMAISSAQRRMRAAKKVVRKK	soluble
MGEIQVVAFRLGDEEFCLEISKVREIKEMMPITRVPNAPDFVEGVINLRGQITTVINLKKLLGYYDDGDLSNKKIIIAEVNGEIVGVIVDSVSDVITLTEDQIEQPPKTLASRVDMKAIKGIAKINNGERLLIMLDLDKLIGESF	soluble
MSLKVGECMTKFNWHESAEKKWDSSAEFWNQNSQEMWDSGSRSTIIPFFEQYVKKEAEVLDVGCGDGYGTYKLSRTGYKAVGVDISEVMIQKGKERGEGPDLSFIKGDLSSLPFENEQFEAIMAINSLEWTEEPLRALNEIKRVLKSDGYACIAILGPTAKPRENSYPRLYGKDVVCNTMMPWEFEQLVKEQGFKVVDGIGVYKRGVNEKMLGQLSTDLQQSLTFLWVFMLKRHKEMKEFLGGKEGHHHHHH	soluble
MVPELKQISRVEAMRLGPGWSHSCHAMLYAANPGQLFGRIPMRFSVLMQMRFDGLLGFPGGFVDRRFWSLEDGLNRVLGLGLGCLRLTEADYLSSHLTEGPHRVVAHLYARQLTLEQLHAVEISAVHSRDHGLEVLGLVRVPLYTQKDRVGGFPNFLSNAFVSTAKCQLLFALKVLNMMPEEKLVEALAAATEKQKKALEKLLPASSAHHHHHH	soluble
MSLARSTPAIVILGQGSLDTARQIQRLYPDSLIHGLAERVEGADRVYHEFGATLRQLYQQDTPIIALCAAGIVIRTLAPLLLEKGAEPPVLAVAEDGSAVVPLLGGLGGVNVMAREIAAGLGVAAAITTSGELRFGTCLLNPPSGYALGDLELGKRFVSDLLGGESVRIEGAAPWLAAAKLPENDQARLTIRVGSAEREPVANELLIYPRSVLVACRGQRLAGEADSDLATHIRQALHQARIAVQSVACLLAADRDMADRALHQAAAQLGVPLRFLPAADSVAELAQQAVPQLLPPLKVGEDIAIAVASQPLDPEQIGRPRGRLAVIGLGPGAAELMVPAVKAELARANDILGYETYVRMAGPFRADQVMHCTDNREEMQRARHAFELAAQGRSVVVVSSGDPGVFAMAAAVIEALHESSDPAWHSVDLEILPGVSASLATAAQAGAPLGHDFCVLSLSDNLKPWDIIEKRLDLASQADLALAFYNPISRSRPWQLGRALEIVRQHRTPQTPVVLGRDIGRPGQTLRVITLGELTPEQVDMRTMVLVGSSTTCVFPRAGGGDWVYTPRWYGNKEGHHHHHH	soluble
MSLIFNKNCNVNKETQIEAFAIKNHDKKFVYPMGNIIGVKANTDGVLVLGYEEEDVDYIGGIQIGDNIVKIDNKRIKNSQDVSEILNKIKKSKVEVTFERKNKYKTEVIETKKENGKYKLGLWVRDKISGIGTMTFYDPSMEKFKAIGHAIKDSDTNELLKIKQGYIYKPEQLKIVKASNEKVGKIKGDFNDSNLMGNFSNNSELGISGNITENHNKEFNVANKEKQLIEVGRPQDVKIGDAVILFEDKNKNITSYDIKIESIVYDKGNYRDMVIKVVDDKLLEYTGGIVQGMSGAPIIQNNKIIGAITHVFRDNPKKGYGIFIDEMIKLEGHHHHHH	soluble
SASRGYLHHLLTAEGAWEEFVSKAKLPRDRAVALHKALRDLTALLAIAERGRSRKGWKGKEKFVKAFPCLKADLEEHISQLYALADHAEELHRGCTVSNMVADSFSVASDILNLFGLFLAPESAEGSLVLSAAGLGLGVAATVTNVATSIMKETSRVLDGVEAGHHGSTAMDILEEAGTSVARIASEIPQATRDITRDLEALEQHMNALSLVRANPRLEEDARALINAGSIPAQRAKQVRASLKGTPLAMSKEDRIRSATTTGVTLLRDVGSLVNESKQLYEGSASESAAALRKLAQELEEKLGELMKFYETI	not soluble
